Among the targets are human claudin-5 (human, UniProt O00501); human occludin (Homo sapiens, UniProt Q16625); murine claudin-15 (mouse, UniProt Q9Z0S5); human claudin-1 (human, UniProt O95832); human claudin-19 (human, UniProt Q8N6F1); human claudin-3 (human, UniProt O15551); human claudin-17 (human, UniProt P56750); human claudin-6 (human, UniProt P56747); human claudin-9 (human, UniProt O95484).
What all share (experiment): BLI
For experiment [1], the target named is COP-1, synthetic antibody fragment (sFab), with C-terminal histidine tag.
For experiment [2] the target is unchanged. The source holds these as a separate data set.
Experiment [3] has as its target human claudin-18 splice variant 18.1 (human, UniProt P56856).
For experiment [4], the target named is human claudin-18 splice variant 18.2 (human, UniProt P56856-2).
Experiment [5] has as its target human junctional adhesion molecule-A (Homo sapiens, UniProt Q9Y624).
The target in experiment [6] is C-terminal domain of Clostridium perfringens enterotoxin, in solution (Clostridium perfringens, UniProt P01558).

Read-outs that look alike come from different tables or passages of the source.

human claudin-1, sequence (O95832 whole entry): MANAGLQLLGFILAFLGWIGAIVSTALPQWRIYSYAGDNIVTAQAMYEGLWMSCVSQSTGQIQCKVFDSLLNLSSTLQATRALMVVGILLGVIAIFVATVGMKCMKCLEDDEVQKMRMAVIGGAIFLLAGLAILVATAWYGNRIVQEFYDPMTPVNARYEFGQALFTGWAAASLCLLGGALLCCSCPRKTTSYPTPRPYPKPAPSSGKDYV
human claudin-9, sequence (O95484 whole entry): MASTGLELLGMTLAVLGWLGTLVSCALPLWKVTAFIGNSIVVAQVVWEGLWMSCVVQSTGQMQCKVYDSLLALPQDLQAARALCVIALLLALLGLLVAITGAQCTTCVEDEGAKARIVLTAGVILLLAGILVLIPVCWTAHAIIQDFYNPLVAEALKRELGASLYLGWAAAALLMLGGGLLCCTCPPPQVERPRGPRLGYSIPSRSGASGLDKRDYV
human claudin-5, sequence (O00501 whole entry): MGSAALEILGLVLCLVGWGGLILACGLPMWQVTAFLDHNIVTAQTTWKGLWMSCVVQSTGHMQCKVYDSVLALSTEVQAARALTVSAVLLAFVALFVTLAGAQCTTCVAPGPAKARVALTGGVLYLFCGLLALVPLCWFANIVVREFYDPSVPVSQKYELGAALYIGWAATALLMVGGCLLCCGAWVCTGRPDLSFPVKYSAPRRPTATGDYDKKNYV
C-terminal domain of Clostridium perfringens enterotoxin, in solution, sequence (P01558 198-319): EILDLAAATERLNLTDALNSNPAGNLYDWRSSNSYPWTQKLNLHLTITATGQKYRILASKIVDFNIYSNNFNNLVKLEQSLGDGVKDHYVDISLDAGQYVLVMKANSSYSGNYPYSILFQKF
human claudin-6, sequence (P56747 whole entry): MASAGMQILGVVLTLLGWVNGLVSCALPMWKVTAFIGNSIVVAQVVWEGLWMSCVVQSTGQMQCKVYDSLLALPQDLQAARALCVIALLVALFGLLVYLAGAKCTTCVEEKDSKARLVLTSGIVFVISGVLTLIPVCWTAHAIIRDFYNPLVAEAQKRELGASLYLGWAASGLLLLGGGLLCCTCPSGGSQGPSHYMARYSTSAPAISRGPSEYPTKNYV
human claudin-17, sequence (P56750 whole entry): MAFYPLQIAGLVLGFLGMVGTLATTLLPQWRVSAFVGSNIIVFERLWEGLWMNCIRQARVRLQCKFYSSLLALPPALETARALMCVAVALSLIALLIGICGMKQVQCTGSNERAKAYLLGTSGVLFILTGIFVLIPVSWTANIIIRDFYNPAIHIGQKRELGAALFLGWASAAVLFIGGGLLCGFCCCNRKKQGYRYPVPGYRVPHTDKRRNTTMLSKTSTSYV
murine claudin-15, sequence (Q9Z0S5 whole entry): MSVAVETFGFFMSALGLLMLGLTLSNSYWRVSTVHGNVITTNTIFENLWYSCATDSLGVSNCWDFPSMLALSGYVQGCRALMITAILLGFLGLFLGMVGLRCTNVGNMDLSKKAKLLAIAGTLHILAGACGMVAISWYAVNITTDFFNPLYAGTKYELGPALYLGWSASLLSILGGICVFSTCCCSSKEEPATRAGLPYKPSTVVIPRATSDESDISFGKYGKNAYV
human claudin-3, sequence (O15551 whole entry): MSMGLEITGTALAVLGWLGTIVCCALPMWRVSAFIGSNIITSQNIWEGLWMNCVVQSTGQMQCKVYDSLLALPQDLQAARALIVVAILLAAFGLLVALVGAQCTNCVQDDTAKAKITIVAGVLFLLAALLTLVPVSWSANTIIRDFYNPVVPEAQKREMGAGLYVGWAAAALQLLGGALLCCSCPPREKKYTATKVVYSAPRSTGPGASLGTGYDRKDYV
human claudin-19, sequence (Q8N6F1 whole entry): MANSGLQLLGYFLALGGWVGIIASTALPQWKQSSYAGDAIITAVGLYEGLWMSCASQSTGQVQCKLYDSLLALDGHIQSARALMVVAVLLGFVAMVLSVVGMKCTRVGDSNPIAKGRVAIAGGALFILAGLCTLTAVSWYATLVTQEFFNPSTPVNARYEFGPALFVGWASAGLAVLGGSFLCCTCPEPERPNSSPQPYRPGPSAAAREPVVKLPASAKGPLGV

“human claudin-4 (from UniProt O14493) (natural protein)”: in experiment [1], the Kd was determined as 106 nM and the t1/2 of the complex is 30 min. The molecule further returned a Kd in [2] of 70.6 nM.

B1: COP-1, synthetic antibody fragment (sFab), with C-terminal histidine tag (Fab, V domains shown)
VH: EVQLVESGGGLVQPGGSLRLSCAASGFNFSSSYIHWVRQAPGKGLEWVASISSSSGSTSYADSVKGRFTISADTSKNTAYLQMNSLRAEDTAVYYCARWFHPWWWWEYLFRGAIDYWGQGTLVTVSS
VL: DIQMTQSPSSLSASVGDRVTITCRASQSVSSAVAWYQQKPGKAPKLLIYSASSLYSGVPSRFSGSRSGTDFTLTISSLQPEDFATYYCQQSSSSLITFGQGTKVEIK
Turning to B1, the Kd with human claudin-5 worked out at 75.8 nM; in experiment [3], 92.4 nM; in [4], 66.4 nM; with murine claudin-15 it was 59 nM; with human claudin-1 it was 61.3 nM; with human claudin-19 it was 62.2 nM. Moreover, the Kd with human claudin-3 worked out at 57.9 nM; with human claudin-17, 80.2 nM; with human claudin-6, 59.5 nM; with human claudin-9 it was 66 nM. The values for the binding result (with human occludin; in experiment [5]; in experiment [6]) were “no binding (tested: 500 nM)”, “no binding (tested: 500 nM)” and “no binding”, respectively.

The values are drawn from article doi:10.1101/2024.11.10.622873 (bioRxiv, 2024).
